Results as given in the domain aggregation screens of Martell et al. (2025).

Assay: soluble fraction after stress (log2 fold change); higher = more stays soluble; pooled small domains, quantitative proteomics
Conditions: stress: 50 degC
How it was run: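 Pooled custom libraries of small protein domains were each held under stress at 50°C. The read-out, high-throughput quantitative proteomics, tracked how much of each protein stayed soluble. This is reported as a base-two log fold change used to indicate aggregation propensity. Higher values mean more protein remains in solution.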

Sequence | soluble fraction (log2)
HMDTVEFPVQVNGKVRGKITVAADAGKDAIETAALADEKVLAFLDGATPKKVIVVPGKLVNLVVQPG | 0.435
HMRFMRVSQSKSKNSTSLYIIESVYTKDNKHTTRIVKKLGTVEELSKEHEDPLAWAKEVAKQMTEEAEQN | -0.347
HMDGPELYESMKAIVPDQLDRTIFLTGGAYTPRAQEFLARVPNQQMEKPFEFEALRSLLARLT | 0.0477
HMAKQEPTDNGYDIYKVTASVLNVRNGAGTSYAVAYQLSKEDYVEVVSIDKGWAKLKDGKYVSADWITLYK | -0.54
HMHDNPLSAQEQRVLDLIAAGKTSKEIASQLFLSDGTVRNYTTSIFNKLNANNRVEAINIAQENGW | 0.486
HMEPSQEFSLADMVAYDLTGYPKSAALRAAVGASLGIGYGNAKQFVYRLNHYGISKDDFHRAAQEALDGL | -0.87
HMLDKEDNANAGKTLLERELSRAHLSDVEHRELAQRLHLASEQELYIKIGSGDLSIIQALNRAKEFKDT | -0.0156
HMDRRFFVAEENYKRLDVFLSERMEEFTRSRIKKLIDEGHVELNGKSAKAGAEIRPGDEVAAEIPEVKE | 0.147
HMGPDGLFAKFREPETGKDLLITQNVFVEQVLIKGVLTRTLTDAEANTYRAPFVNPEKRFPIYVWPNELP | 0.142
HMVAEPTYGRTTDVLNIRSGPSTDDERIGQLSRGAVVTILEEKDGWYRLQRGYISADYVTQISAEEASNS | -0.221
HMSPTSSRAAQARIRKMIESESPLKPISDSQLAARLGEEGISIARRTVAKYREQMNILPASQRRGV | -0.146
HMLEPGIAVLKTLMSQYRLGVADLPELGSKSNVSKLLNAVEGKKLTRQHIEALSKRFAVSPALF | -0.195
HMDVPTEEAILAYNNVPIELAAKFIGWSDITIRYALQEERAPFGMAAQNPKTGTWSYNISPGLLLKYKSGE | -2.11
HMGQDTTIVVRRGESLLGIAARLLPATDFYTTGELAEGIRTASGMENDRLIPGQTLRVPLNSG | -0.0889
HMQMSDTAAIGKIVDEVFAENPAALEDYAKGKTNVVDWLTGQVMKKSRGQANPGIASELVQKRLADF | 0.122
HMDNFQFIGYSQQQGQIAVAWIKSLDNGRLVRVEVSDSLEGWRVSDISAQGVNLTKGQQWLMLKRL | -1.73
HMEDKQRRMGELVALLNRAAYAYYTKDEPIMADVQYDRLYDELLSLEKETGVQMADSPTHRV | -0.173
HMNSHLEEGRHGLQIGDPGIVRARIESDPEGETDMPVVVIDGRNISWNEFGRMVATYTGFQFKLEM | -0.515
HMTLSDDEFEIIKSLIIDTLKEEALTINALTKKINHKEAKTIQVIRFLLDNGLVAENNLMKLFVI | -0.821
HMNAQLTTIPDLDGMNMRAATAMLSSLGLEVKRIGSGTVFAQFPKAGAAMRPGSMVTIRGKAKSL | -0.355
HMGEAYVVPNVKNKTLGEAQLALHNQKLEGLVVDSSYVKGLPDGMILDQNPAGGARVKEGRTIYLTITTS | 0.00953
HMKEGTIPPVVNRTLSDAEFVLKSYGYELGRVSEQHSDMPKDIVIKQSPEAGTVADPGTRVDVVVSIGKA | 0.404
HMRKIKDVLRLKLHAGLSHERVAASLNISKGVVAKYTSLAAAAGLDWPTVERLSEAALERRLV | -0.135
HMETFEKIKELAKKRGKALGQVEEDLGYGRNTLYKIKNSTPNAERIAEIANYFNVSTDYLLGRTDNPTIAK | 0.203
HMPMINLYQRLNLPPTASRAEIEAALAQYRSELSTAEIRGVQEWLLVNEVRHRYDAKLRQEQPSFFI | -0.471
HMLEDDTVNTAEGIKIGDSFAAVTKAYGTDYVAAGNTYAYSKDKMTLTFVMNNDKVSTISYSLLTS | -0.129
HMGTFIATVEANSLDIYKSMSSNETIGKANKGEVFQILEDMGSGYARVSYNDVEGYLSIRDGDATIEE | -0.356
HMASFGDLSGLKRTYPPQGLPDASRIADFLIARNEGDLSVEQVKALERFLFEHPDHERTARLVAATRVPA | -0.0263
HMTPLFNQGEVLKGFVLQTGTNNRVLLQIGTAKVLADAQTPLKAGEQLTLRVEATGPRTVLQILG | 0.553
HMLTRSASREELDQLLKRLRQNLKQKNFFWPPDKEKSLVLYLENLFSKFPLNSSDIRFLHGIIRTLSEK | -0.178
